Tested on: T1, biotin-p-CABIN1-L-1 (phosphorylated CABIN1-L-1)
T1 sequence: AAAMAGFPPEITVTPPTP
Assay: SPR (Biacore T200), biotin-labeled peptide captured on SA chip, His-tagged CNA at 1.25, 2.5, 5 and 10 nM, 25° C.

“His-tagged CNA (purified; isoform not stated)” showed a fold increase of binding affinity (phosphorylated vs unphosphorylated CABIN1 peptide) of 3 fold.

Reference: US20240376163
